Test results reported in paper PMC8627827 (Biomacromolecules, 2021).

Test: Subcutaneous pharmacokinetics in streptozotocin-induced diabetic rats
Set-up: species or system Male Sprague Dawley rats
Conditions: rat, in vivo, sc, 10 U/kg

## insulin-PEG20k: insulin covalently modified with 20 kDa mPEG via insulin-BCN, long-acting control
  Time to peak (serum insulin): 7 ± 1 h
